Source: the supplement of paper PMC9170038

Tested on: MS2 coat protein
Experiment: apparent KD of MS2 coat protein; designed switch direction (-1 OFF switch, 1 ON switch): -1; higher = weaker reporter binding
In short: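 Stalled E. coli RNA polymerase transcribed designed RNA switches on Illumina chips, which were then titrated with SNAP-549-labelled MS2 coat protein, doubling from 0.7 or 1.5 nM to 3 µM. Steps lasted from 0.8–1.5 h at the lowest concentration to 10–20 min at the highest. The apparent KD is each design's median over clusters of curve-fitted normalised fluorescence.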

[1] = input ligand: microRNA oligo, concentration not stated
[2] = Eterna round: R95, input ligand: microRNA oligo, concentration not stated
[3] = Eterna round: R95, input ligand: FMN 200 uM
[4] = Eterna round: R95, input ligand: none

| Sequence | apparent KD of MS2 coat protein (input ligand: FMN 200 uM) [nM] | apparent KD of MS2 coat protein (input ligand: none) [nM] | other results |
| --- | --- | --- | --- |
| CUCGUGUAAGGAUAUACGAGUCACGGAAAUAAAACGUGAAGGUAGAAGGUACAUGAGGAUCACCCAUGUAAAAC [Mod of Anonveat 2 - Jieux - Exclusion 4] (Eterna round: R97, puzzle: Exclusion 4) | 209 | 29.8 | – |
| AACACUGUAGGAUAUCAUGAACUGGACUUGAGGAUCACCCAAGUGUAUCCUGGAGUGCCGUGAGAAGGACGGAAAA [Erzalelaan] (Eterna round: R97, puzzle: Exclusion 5) | 56.5 | 46.9 | – |
| GCACGGAUGGUAGGAUAUCAUUGCGAUUAGCUAUGAGAAGGGCCACAUGAGGAUCACCCAUGUCCUCUAAUUAGCCUUCCGUGC [Eli exng1 - 018] (Eterna round: R96, puzzle: Exclusion NG 1) | – | – | apparent KD of MS2 coat protein [1]: 82.3 nM |
| AAUAACUUAGGAUAUACAUGAGGAUCACCCAUGUCCCACCCGUUACCCAUGACCAUAUGUAGAAGGAAGAAGAA [Exy#8] (Eterna round: R97, puzzle: Exclusion 3) | 28 | 35.7 | – |
| AUAAUGUAAGGAUAUCAGUCGUACAGCUUCGGCUGUACGACUGAGAAGGUACAUGAGGAUCACCCAUGUGAUCA [E4/8-A1] (Eterna round: R97, puzzle: Exclusion 4) | 185 | 1680 | – |
| UAUUAGUGAGGAUAUGAGUCGUAGAACAAUAGUACUACGUCUCAGAAGGCACAUGAGGAUCACCCAUGUUCCUU [Mod of Fisker - Jieux - Exclusion 4] (Eterna round: R97, puzzle: Exclusion 4) | 71.3 | 16.1 | – |
| GUCGUGCGGCUUUGCUGUACGAGUACAUGAGGAUCACCCAUGUAGGAUAUGGUUCGUUUUGCGUGCCAGAAGGGCGUGCGUUGU [Excl-NG3-LRO14] (Eterna round: R96, puzzle: Exclusion NG 3) | – | – | apparent KD of MS2 coat protein [1]: 15.1 nM |
| GCUUGUGCCCUAGGAUAUCGCCCAGCCAAUGGAUGAGAAGGAGGCGGGUGAAACAUGAGGAUCACCCAUGUAAACGCACAGGCG [Erdiusbi] (Eterna round: R96, puzzle: Exclusion NG 1) | 189 | 21.9 | apparent KD of MS2 coat protein [1]: 18 nM |
| GGAUAGUGAGGAUAUACCCAGAUUGAUGGACACGUCAGCGGGUAGAAGGCACAUGAGGAUCACCCAUGUGGCCU [Eternabot (L1) Solution 22] (Eterna round: R97, puzzle: Exclusion 4) | 18.4 | 14.1 | – |
| AUUAAACAUGUAGGAUAUGCAUAGCAAAGCUAUGCAGAAGGACAUGAGGAUCACCCAUGUAAAAGCGUCUGAGUACAGAUGCAA [Mat - Exclusion NG 1 - Mod of JL - D89] (Eterna round: R96, puzzle: Exclusion NG 1) | 402 | 57 | apparent KD of MS2 coat protein [1]: 53.2 nM |
| CCCGCGCGUGUAGGAUAUGGCUCGGUGUCUGGGCCAGAAGGACAUGAGGAUCACCCAUGUCUGCGGGUGUGGGCGUGGUUUGGG [-36, -33 kcal A 14%] (Eterna round: R96, puzzle: Exclusion NG 1) | 91.8 | 27.2 | apparent KD of MS2 coat protein [1]: 18.6 nM |
| CGCGCCUUUGUCAGGAUAUUCGGGCGAGCCCGGCCGGAGAAGGGACUUGAGGAUCACCCAAGUGACGCGAAAAC [Beenusre] (Eterna round: R97, puzzle: Brourd's mod of Exclusion 4) | 20.8 | 20.6 | – |
| ACAAGCUUUUGCUCGUCUUACAUGAGGAUCACCCAUGUCGGGUGCUUGCUUACGUCCAGCAUCUGGACCGUAGCAGU [-24.6, -43.1 kcal, 19% A] (Eterna round: R97, puzzle: Sensor, turn-off variant 1) | 142 | 165 | – |
| CCACUGCAUUGCAGUGUCGACAUGAGGAUCACCCAUGUGUCGCAGGCGCCGAGCUUUCCGCUCGUUACGUAUCGACG [Arorin] (Eterna round: R96, puzzle: Sensor v2, turn-off variant) | 60.3 | 60.7 | apparent KD of MS2 coat protein [1]: 42.1 nM |
| UGUGAGCAUGUCAGGAUAUGCAUCACAGUUAGGAUGUAGAAGGGACAUGAGGAUCACCCAUGUAGCUUCAGGUA [BmEX4 A.20] (Eterna round: R97, puzzle: Brourd's mod of Exclusion 4) | 17.7 | 14.5 | – |
| GCAUGGAAAGUGAGGAUAUACCACUGGAUACAGUGGUAGAAGGCACAUGAGGAUCACCCAUGUCUCUACCAUGC [Fiskers BMX 4 - 41] (puzzle: Brourd's mod of Exclusion 4) | – | – | apparent KD of MS2 coat protein [2]: 13.4 nM |
| UACAUGAGGAUCACCCAUGUUUUGUCGUGUAUGGUAUUUAUCUAGGAUAUCAAUUUGUGUAUUUAUGAGAAGGAGAAUAUUAAU [JMF's solution 68] (Eterna round: R96, puzzle: Exclusion NG 3) | 44 | 45.8 | apparent KD of MS2 coat protein [1]: 29.5 nM |
| AAAGUGUGAGGAUAUUAGUUGUACGUCAAUAGACGUAUAAGUGAGAAGGCACAUGAGGAUCACCCAUGUUCCUG [Omei Ex4 Mod of Mat's R95 mod of Omei v5] (Eterna round: R97, puzzle: Exclusion 4) | 99.7 | 21.9 | – |

| Sequence | apparent KD of MS2 coat protein (input ligand: FMN 200 uM) [nM] | apparent KD of MS2 coat protein (input ligand: none) [nM] | other results |
| --- | --- | --- | --- |
| CUUAUGUGAGGAUAUGCCUGGCCGUGAGGCCAAAUUGAAUUGCAGAAGGCACAUGAGGAUCACCCAUGUGCGGG [jl-ex4-4.66 ViennaUCT mod] (Eterna round: R97, puzzle: Exclusion 4) | 201 | 50.2 | – |
| GGUCAGACGGUAGGAUAUCCAUAUCGAGUGACCCUUUUAUAACAUGAGGAUCACCCAUGUCGGUGGGAGAAGGGCCGUACGGCG [salish99_ExNG02_R04_003] (Eterna round: R96, puzzle: Exclusion NG 2) | 445 | 401 | apparent KD of MS2 coat protein [1]: 304 nM |
| AAUUUAAUUAACAAGCUUUACAUGAGGAUCACCCAUGUGAUCAUGCUCGUCUUAUAAUUAAUUAAUUAAUUAAUUAA [Stov1/6-A1] (Eterna round: R97, puzzle: Sensor, turn-off variant 1) | 48.4 | 59.2 | – |
| UUCAUGUAAGGAUAUCGUGCAAGUUUCAAAAGAGGCUUGUGCGAGAAGGUACAUGAGGAUCACCCAUGUAGGUU [Omei Ex4 B9] (Eterna round: R97, puzzle: Exclusion 4) | 86.9 | 754 | – |
| AAGGAUAGAGGAUAUACAUAGAUACAGAUUCAUGUGGUCCUACAUGAGGAUCACCCAUGUAGAAGGCUAUCCUA [Fiskers Ex 2 - 14] (puzzle: Exclusion 2) | – | – | apparent KD of MS2 coat protein [2]: 169 nM |
| AUCUUGUAAGGAUAUCUUACAAGUGACUUCGGUCACAGUUAAGAGAAGGUACAUGAGGAUCACCCAUGUAUAAC [Ex4-3: 38] (puzzle: Exclusion 4) | – | – | apparent KD of MS2 coat protein [2]: 23.8 nM |
| CCGGAAGUAGAGGAUAUCGUAUCGGAUACGAUACGAGAAGGCUAUACAUGAGGAUCACCCAUGUGUCCUACCGG [Fiskers Ex 6 - 5] (puzzle: Exclusion 6) | – | – | apparent KD of MS2 coat protein [2]: 21.4 nM |
| CAUUAUUAUCGAGGAUAUCCUAUUGAAAUUCUGGGAGAAGGCGGACUCAACAUGAGGAUCACCCAUGUGGGACGGAUGCUAGGA [salish99_exng1_r04_602] (Eterna round: R96, puzzle: Exclusion NG 1) | – | – | apparent KD of MS2 coat protein [1]: 13.3 nM |
| AAGAUGAGACAGGAUAUCCACAAAAUCUUGUCAGGAGAAGGGUCUACAUGAGGAUCACCCAUGUGAUUCUUGAA [Inriinvele] (puzzle: Exclusion 6) | – | – | apparent KD of MS2 coat protein [3]: 19.1 nM; apparent KD of MS2 coat protein [2]: 14.6 nM; apparent KD of MS2 coat protein [4]: 18.1 nM |
| UUUUACAUAGGAUAUAGUUUCUUUUACAUGAGGAUCACCCAUGUCUCUCCUCUCUCUCUUCUAGAAGGAUGUUUCU [JR_E5_Sub012] (puzzle: Exclusion 5) | – | – | apparent KD of MS2 coat protein [2]: 86.1 nM |
| AGCAUGCAGUAGGAUAUCGAUCCGCAAUAUGAACGAGAAGGGCUGACAUGAGGAUCACCCAUGUGCGUCCUAGG [jl-ex6-4.40 ViennaUCT mod] (Eterna round: R97, puzzle: Exclusion 6) | 19.4 | 20.2 | – |
| AAGAUGUCAGGAUAUUAGUAGUAAAUGAAUAAAAUUAUUACUGAGAAGGGACAUGAGGAUCACCCAUGUGCCUU [Mat - Exclusion 4 - Eli Mod - D10] (Eterna round: R97, puzzle: Exclusion 4) | 17.5 | 16.6 | – |
| UUUUACUUAGGAUAUACAUUUUUUUAUUUAUUUAUAAUAUUACAUGAGGAUCACCCAUGUAGAAGGGAGAUUUU [My Design] (puzzle: Exclusion 2) | – | – | apparent KD of MS2 coat protein [2]: 78.1 nM |
| AAAUCGGUGGAGGAUAUUGUACAGGAAACGGUGCGAGAAGGUUACACAUGAGGAUCACCCAUGUUAAAUAGCGA [EX6 #56] (Eterna round: R97, puzzle: Exclusion 6) | 25.2 | 22.1 | – |
| AAGAUUCUCAUGAGCUGGAACAUGAGGAUCACCCAUGUGUGUUGCUUUUUGCUCAAGGAAUCCAUUUCGAUCUUAUA [Eternabot (L1) Solution 43] (Eterna round: R97, puzzle: Sensor, turn-off variant 1) | 62.9 | 71.8 | – |
| CUGAACCCGGUAGGAUAUAUUGUGGGCAAACAUGGAACAACAUGAGGAUCACCCAUGUAAUUUAGGUAGAAGGGCCAAAAGAUU [Excl-NG2-LRO07] (Eterna round: R96, puzzle: Exclusion NG 2) | 77.9 | 74.2 | apparent KD of MS2 coat protein [1]: 50.4 nM |
| AAUUCUAGGGUCAGACGCACAAGCUUUUUGCUCGUUUUAACAUGAGGAUCACCCAUGUCUAGUGGAUCUGAUCGGGC [JL ViennaUCT Isreen mod 8] (puzzle: Sensor v3, turn-off variant 2) | – | – | apparent KD of MS2 coat protein [3]: 24.8 nM; apparent KD of MS2 coat protein [2]: 72.9 nM; apparent KD of MS2 coat protein [4]: 22.4 nM |
